# Laboratory results taken from the nanobody polyreactivity screen of Harvey et al. (2022).
# Test: yeast display, Sf9 membrane polyspecificity reagent, FACS + sequencing; frameworks hold sequencing errors
# In short: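 Nanobodies from a synthetic yeast display library (Saccharomyces cerevisiae BJ5465), induced 36–48 hours with galactose, were stained 1 hour at 4 °C with 10% biotinylated, detergent-solubilized Sf9 membrane reagent, enriched on streptavidin microbeads, then FACS-sorted. Anti-HA (expression) and streptavidin (reagent binding) fluorescence set low and high (top ~1%) gates. Polyreactivity labels come from the gate of origin. Genes were colony-PCR amplified, MiSeq 2 × 250 sequenced and filtered by CDR length.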
row,Sequence,polyreactivity (PSR sort gate)
1,QVQLVESGGGLVQAGGSLRLSSAASGSIFYGNSMGWYRQAPGKERELVAAISQSGGSTYYADSVKGRFTISRDNAKNTVYLQMNSLKPEDTAVYYCAAYTPYATWRYDYWGQGTQVTVSS,low polyreactivity
2,QVQLVESGGGLVQAGGSLRLSCAASGITFWKYAMGWYRQAPGKERELVAAISKSGGSTYYADSVKGRFTISRDNAKNTVYLQMNSLKPEDTAVYYCAAYPQFWYWDYNYWGQGTQVTVSS,high polyreactivity
3,QVQLVESGRGLVQAGGSLRLSCAASGRIFVHYAMGWYRQAPGKERELVAAITYSGDSTYYADSVKGRFTISRDNAKNTVYLQMNSLKPEDTAVYYCNAVVRRVLFDYDYWGQGTQVTVSS,high polyreactivity
4,QVQLVESGGGLVQAGGSLRLSCAASGSIFAYKAKGWYRQAPGKEREFVAVITRSDDSTYAYSVKGRFTISRDNAKNPFYLQMNSLKAEDTAVYYCARRWSYLRPSLEYDSWGQGTQVTVSS,low polyreactivity
5,QVQLVESGGGLVQAGGSLRLSCAASGRIFTLYTMGWYRQAPGKERELVAAINRGGSTTYADSVKGRFTISRDNAKNTVYLQMNSLKPEDTAVYYCAAYRYTSRVYSYWRGYDYWGQGTQVTVSS,high polyreactivity
6,QVQLVESGGGLVQAGGSLRLSCAASGFIFTGYAMGWYRQAPGKERELVATISRRGGSTYYADSVKGRFTISRDNAKNTVYLQMNSLKPEDTAVYYCAAQRTLYRSGFDSWGQGTQVTVSS,high polyreactivity
7,QVQLVESGGGLVQAGGSLRLSCAASGFIFAFYDIGWYRQAPGKERELVAAISWGGSTYYADSVKGRFTISRDNAKNTVYLQMNSLKPEDTAVYYCAARLSRSYRYGYWGQGTQVTVSS,high polyreactivity
8,QVQLVESGGGLVQAGGSLRLSCAASGSTFIANAMGWYSQAPGKERELVAGITRGGSTYYADSVKGRFTISRDNAKHTVYLQMNSLNPEDTAVYYCATDLRSYYYQWTYYHWGQATQVTVSS,low polyreactivity
9,QVQLVESGGGLVQAGGSLRLSCAASGSTFYYGMGWYRQAPGKERELVAAISSRGGTTYYADSVKGRFTISRDNAKNTVYLQMNSLKPEDTAVYYCAAPVPYYVPRRNEGDYWGQGTQVTVSS,low polyreactivity
10,QVQLVESGGGLVQAGGSLRLTCASSGRILVSYAIGWYRQAPGKERELVAAISRSGGSTYYADSVKGRFTISRDIAKNTVYLQMNSLKTEDTAVYYCNVYRFSRYDYWGQGTKVTVSS,high polyreactivity
11,QVQLVESGGGLVQAGGCLRLSCAASGFTFIYYVMGWYRQAPGIERELVAAINGRGDRKYYADSVKGRFTISRDNAKNTVYLQMTSLKPEETAVYYCNARTHTWGYSAKFDYWGQGTQVTVSS,high polyreactivity
12,QVQLVESGGGLVQAGGSLRLSCAASGSIFRFYAMGWYRQAPGKERELVADISWRGGSTYYADSVTGRFTISRDNAKNTVYLQMNSLKPEDTAVYYCAADGPGKYDYWGQGTQVTVSS,high polyreactivity
13,QVQLVESGGGLVQAGGSLRLSCAASGSTFNHYTMGWYIQAPGKERELVAAISSRGGGTYYADSVKGRFTISRDNAKNTVYLQMNSLKPEDTAVYYCAALISSGIRHSRDYWGQGTQVTVSS,high polyreactivity
14,QVQLVESGGGLVQAGGSLRISCAASGGNFDSNAMGWTRPAPGKVRELVAAISDSGGSTYYADSVKGRFTISRDNAYNTVYLQMNSLKPEDTAVYYCAADSDYHFVNYRFGMDYWGQGTQVTVSS,low polyreactivity
15,QVQLVESGGGLVQAGGILRLSCAASGSIYKPNTMGWYRQAPGKERELVAAITRGGRTKYADSVKGRFTISRDNAKNTVYLQMNSLKPEDTAVYYCNKARYTVISYDEYDDWGQGTQVTGSS,high polyreactivity
16,QVQLEESGGGLFQAGGSLRLSCAASGSTITRYAMGCYRQAPGKEREIVAVISRSGGSTYYADSVKGLFTISRDNAKNTVYLQINSLKPEDTAVYYCAAKYYGGRRSPYSYGYWGQGTQVTVSS,high polyreactivity
17,QVQLVESGGGLVQAGGTLRLSCAASGRILYLNAMGWYRQAPGKEREFVAAISKSGGSTYYADSVKGRFTISRDNAMNSVYLQMNSLKPEDTAVYYCATRFRSAEYDYWGQGTQVTVSS,low polyreactivity
18,QVQLVESGGGLVQAGGSLRLSCAASGSTFAFYAMGWYRQAPGKERELVAAISSSGARTYYADSVKGRFTLSRDNAKNTVYLQMNSLKPEDTAVYYCAAAFYRLYITSYYYWGQGTQVTVSS,high polyreactivity
19,QVQLVESGGGLVQAGGSLRLSCAASGIIFSLNTMGWYRQAPGKERELVAAISSSGGSTYYADSVKGRFTISRDNAKNTVYLQMTSLKPEDTAVYYCARRYAPNTSLTFYYWGQGTQVTVSS,low polyreactivity
20,QVQLVESGGGLVQAGGSLRLSCAASGSTFLKYAMGWYKHAPWKERELVAAITYRGGTTYYADSVKGRFTISRDNAKNSVYFQMNSLKPVDTAVYYCNARRDYDMDWGQGTLVTVSS,high polyreactivity
21,QVHLVESGGGLVQAGGSLRLRCAASGSISGRYAMGWYRQAPGKERELVAAISWIGGSTYYADSVKGRFTISRDNAKNTVYLQMNSLKPEDTAVYYCNVSIDTRTHPLLVVFYGYDYWGQGTQVSVSS,low polyreactivity
22,QVQLVESGGGLVQAGGSLRLSCAASGRTLVLNMGWYRQAPGKERELVATINSGGSTYYADSVKGRFTISRDNAKNTVYLQMNSLKPEDTAVYYCAVLSSDGKFDYWGQGTQVTVSS,low polyreactivity

row,Sequence,polyreactivity (PSR sort gate)
1,QVQLVESGGGLVQAGGSLRLSCAASGFIFKRYAMGWYRQAPGKERELVAAITGSGSRTYYADSVKGRFTISRDNAKNTVYLQMNSLKPEDTAVYYCNKDRRPTADFGYWGQGTQVTVSS,high polyreactivity
2,QVQLVESGGGLVQAGGSLRLSCAASGFTFAVYAMGWYRQAPGKERELVAAINRGGGSTYYADSVKGRFTISRDNAKNTVYLQMNSLKPEDTAVYYCNKRYRVWFDYWGQGTQVTLSS,high polyreactivity
3,QVQLVESGGGLVQAGGSLRLSCAASGIILYYNALGWYRQAPGKERELLAAITTSGVSTYDADSVKGRFTISRDNAKNTVYLQMKSLKPEDTAVYYCNARARARYFYEMDYWGQGTQVTVSS,low polyreactivity
4,QVQLVESGGGLVQAGGSLRLSCAASGGTFSFNAMGWYRQAPGKERELVAAITQTGDGTYYADSVKGRFTISRDNAKNTVYLQMNSLKPEDTAVYYCNTDSIPYVPWFRFDYWGQGTQVTVSS,low polyreactivity
5,QEQLQESGGGQVQAGGSLLLSCAASGNIIRYYYMGWYRQAPGKERELVAAITYGTSTNYADSVKGRFTIRRDNAKNTVYLQMNSLKPEDTAVYYCAVDVNYGDPLDNWGQGTQVTVSS,high polyreactivity
6,QVQLVESGGGLVQAGGSLRLSCAASGFTFDKYGMGWYRQAPGKERELVAAISSGGSTNYADSVKGRFTISRDNAKNTVYLQMNSLKPEDSAVYYCAARYYRYGRFRAYSWWTYGYWGQGTQVTVSS,high polyreactivity
7,QVQLVESGGGLVQAGGSLRLSCAASGSTFRYYAMGWYRQAPGKERELVAAISYRGVRTNYADSVKGRFTISRDHAKNTVYLQMNSLKPEDTAVYYCADRFGRSSSGSPYDRYGYWGQGTQVTVSS,high polyreactivity
8,QVQLVESGGGLVQAGGSLRLSCAASGFNFAIYAMGWYRQAPGKERELVAAINSDGSTYYADSLKGLFTISRDNAKNSDYLQINSLKPEDTAVYYCNAETAGHDMDYWGQGTQVTVSS,low polyreactivity
9,QVQLVESGGALVQAGGSLRLSCAASGRTFVSYVMGWYRQAPGKEREMVAAISGNGGRTYYADSVKGRFTISRDYAKKTVYLQMNSLKPEDTAVFYCAAELFVSYFDVLMYYWGQGTQVTVSS,high polyreactivity
10,QVQLVESGGGLVQAGGSLRLSCAASGFTFSGYAMGWYRHAPGKERELVAAISSRGGRTYYADSVKGRFTISRDNAKNTVYLQMNSLKPEDTAVYYCAARSRRTDNSVQFDYWGQGTQVTVSS,high polyreactivity
11,QVQVVESGAGLVQAGGILRLRCASSGFILYPNAMGWYRQAPGKERELVAAITESDGITYYADSVKGRFTISRDNAKNTVYLQMNSLKPEDTAVYYCNTGFSYTYDYWGQGTQVTVSS,low polyreactivity
12,QDQLVESGGGLVQAGCSLLLSCAASGRIFAKNAMVCYRQAPGKERELVATSSWSGSSTRYADSVKGRFTISRDYAKNSVYLQMNSLKPEDTAVYYCAARPTPRRTPYTATYDYWGQGTQVTVSS,high polyreactivity
13,QVQLVESGGGIVHAGCSLRLSSTASRFIFWWYAMAGYRQAHGKERELVATITASVGSTNYADSVKGRFTISRDNAKNTVYLQMNSLNPEDTAVYYCATDIIGAIRDWDHTRMDYWGQGTQVTVSS,low polyreactivity
14,QVQLVESGGGLVQAGGSLRLSCAASGSTFCHYAMGWYRQAPGKERELVAAISWSGGSTSYADSVKGRFTISRDNAKNTVFLQMNSLIPEDTAVYYCNKRQEWFHFPYTRGYYWGQGTQVSVSS,low polyreactivity
15,QVQLVESGGGLVQAGGSLRLSCAASGIIFQQYAMGWYRQAPGKERELVAAITYSGDGTYYADSVKGRFTISRDNANNTVYLQMNSLKPEDTAVYYCAAYPRDPYKEYDYWGQGTQVTVSS,low polyreactivity
16,QVQLVESGGGLVQAGGSLRLSGAASGRIFQRYVMGWYRQAPGKERELVAAISYSGARTYYADSVKGRFTISRDNAKNTVYLQMNSLKPEDTAVYYCAARIRNWPAMDYWGQGTQETVSS,high polyreactivity
17,QVQLVESGGGLVQAGGSLRLSCAASGSIFRGNAMGWYRQAPGKEREMVAAISVSGSRTYYADSVKGRFTISRDNAKNTVYLQMNSLIPEDTAVYYCNAVLRVKGSGDFDYWGEGTQVTVSS,high polyreactivity
18,QVQLVESGGGLVQAGGSLRLSCAASGSTFGIYARGWYIQAPGKEWDLVAAITWIGSDTYYADSVKGRFTISRDNAKNTVYLQMISLKPEDTAVYYCNAVKLLGTRGYGYWGQGTQVTVSS,high polyreactivity
19,QVQLVESGGGLVQAGGSLRLSCAASGSILYWNAMGWYRQAPGKERELVADITWRGGSTYADSVKGRFTISRDNAKNTVYLQMNSLKPEDTAVYYCNAVPVRGSAPRYRQTYSYWGQGTQVTVSS,high polyreactivity
20,QVQLVESGGGLVQAGGSLRLSCAASGSIFKQNTMGWYRQAPGKETELVAAISSGGSTYYADSVKGRFTISRDNAKNTVYLQMNSLKPEDTAVYYCAKYYDWDYYLPLEGDYWGQGTQVTVSS,low polyreactivity
21,QVQLVESGGGLVQAGGSLRLSCAASGFTFSFYAMGWYRQAPGKERELVATIRSGGRTYYADSVKGRFTISRDNAKNTVYLQRNSLKPEDTAVYYCAADDHYGRGFQYYYWGQGTQVTVSS,high polyreactivity
